# From publication PMC10245973
# Biological target: Prunus persica WEEP protein (PpeWEEP), 6xHis-MBP-PpeWEEP-StrepTagII fusion protein (Prunus persica (peach))
# Test: SEC
substance,measurement,value
"Prunus persica WEEP protein (PpeWEEP), 6xHis-MBP-PpeWEEP-StrepTagII fusion protein (natural protein)",stoichiometry N,8.7 mer
